{"source": "patent US20200308299A1", "about": "(NATIONAL UNIVERSITY CORPORATION KOCHI UNIVERSITY, published 2020)", "binders": {"B1": {"name": "anti-Glypican-1 antibody clone K090-01a033 (antibody, mouse IgG2a, kappa, V domains shown)", "VH": "QVQLKQSGPELVKPGASVKISCKASGYSFTGYYMHWVKQSPEKSLEWIGEINPSTGDTTYNQKFKAKATLTVDKSSSTAYMQLKSLTSEDSAVYYCAREKRDDGVFAYWGQGTLVTVSS", "VL": "DIVMSQSPKSMSMSVGERVALSCKASENVGTYVSWYQQKPEQSPKLLIYGASNRYTGVPDRFTGSGSATDFTLTISSVQAEDLADYYCGQSYSYPLTFGAGTKLELKR", "notes": "Selected as scFv on phage; also called clone 01a033; anti-GPC1 monoclonal antibody (01a033)"}, "B2": {"name": "anti-Glypican-1 antibody clone K090-01a002 (antibody, mouse IgG2a, kappa, V domains shown)", "VH": "EVQLQQSGPELVKPGASVKISCKSSGYSFTRYYMHWVKHSPEKSLEWIGEINPSTGDTTYNQKFKAKATLTVDKSSSTAYMQLKSLTSEDSAVYYCAREKRDDGVLAYWGQGTLVTVSS", "VL": "DIQMTQSPKFLPVSAGDRVTMTCKASQSVGNNVAWYQQKPGQSPKLLIYYASNRYTGVPDRFTGSGSGTDFTFTISSVQVEDLAVYFCQQHYSSPLTFGAGTKLELKR", "notes": "Selected as scFv on phage"}, "B3": {"name": "anti-Glypican-1 antibody clone K090-01a021 (antibody, mouse IgG2a, kappa, V domains shown)", "VH": "QVQLKQSGPELVKPGASVKISCKASGYSFTGYYMHWVKQSPEKSLEWIGEINPSTGGTTYNQKFKAKATLTVDKSSSTAYMQLKSLTSEDSAVYYCAREKRDDGVFAYWGQGTLVTVSS", "VL": "SIVMTQTPKFLPVSAGDRVTMTCKASQSVGNNVAWYQQKPGQSPKLLIYYASNRYTGVPDRFTGSGSGTDFPFTISSVQVEDLAVYFCQQHYSSPLTFGAGTKLELKR", "notes": "Selected as scFv on phage"}, "B4": {"name": "anti-Glypican-1 antibody clone K090-01a016 (antibody, mouse IgG2a, kappa, V domains shown)", "VH": "QVHLQQSGPELVKPGASVKISCKASGYTFTDYYINWVKQKPGQGLEWIGYIDPYNDGSKYNEKFKGKATLTSDKSSSTAYMELSSLTSEDSAVYYCARTPYYSFYSYGFYFDYWGQGTTLTVSS", "VL": "DIVLTQSPASLAVSLGQRATISCRASKSVSTSSYSYMHWYQQKPGQPPKLLIKYASYLESGVPARFSGSGSGTDFTLNIHPVEEEDAATYYCQHSREFPLTFGAGTKLELKR", "notes": "Selected as scFv on phage"}, "B5": {"name": "anti-Glypican-1 antibody clone K090-02a014 (antibody, mouse IgG2a, kappa, V domains shown)", "VH": "EVQLQQSGPELVKPGASVKISCKASGYSFTGYYIHWVKQSPEKSLEWIGEINPSTGDITYNQKFKAKATLTVDKSSSTAYMQLKSLTSDDSAVYYCARERNYDRFAYWGQGTLVTVSS", "VL": "SIVMTQTPALMAASPGEKVTITCSVSSSISSSNLHWYQQKSETSPKPWIYGTSNLASGVPVRFSGSGSGTSYSLTISSMEAEDAATYYCQQWSSYPLTFGAGTKLEIKR", "notes": "Selected as scFv on phage"}, "B6": {"name": "anti-Glypican-1 antibody clone K090-02a034 (antibody, mouse IgG2a, kappa, V domains shown)", "VH": "EVQLQQSGPELVKPGASVKISCKASGYSFTGYYMHWVKQSPEKSLEWIGEINPSTGDTTYNQKFKAKATLTVDKSSSTAYIQLKSLTSEDSAVYYCARERNYDRFAYWGQGTLVTVSS", "VL": "QIVLSQSPAIMSASPGEKVTMTCSASSSVSYMYWYQQKPGSSPRLLIYDTSNLASGVPVRFSGSGSGTSYSLTISRMEAEDAATYYCQQWSSYPLTFGAGTKLELKR", "notes": "Selected as scFv on phage"}, "B7": {"name": "anti-Glypican-1 antibody clone K090-02a006 (antibody, mouse IgG2a, kappa, V domains shown)", "VH": "EVQLQQSGAELVKPGASVKISCRASGYSFTGYNMNWVKQSHGKSLEWIGNINPYYGTTNYNQKFKGKATLTVDKSSSTAYMQLNSLTSEDSAVYYCASDGYYGAMDYWGQGTSVTVSS", "VL": "DIKMTQSPKFMSTSVGDRVSVTCKASQNVGTYVAWYQQKPGQSPKALIYSASYRYSGVPDRFTGTGSGTDFTLTISNVQSEDLAEYFCQQYYNYPLTFGAGTKLELKR", "notes": "Selected as scFv on phage"}, "B8": {"name": "anti-Glypican-1 antibody clone K090-02a035 (antibody, mouse IgG2a, kappa, V domains shown)", "VH": "QVQLQQSGAELVKPGASVKLSCKTSGYTFTSYWMHWVKQRPGQGLEWIGNIDPSDSETHYNQKFKDKATLTVDKSSSTAYMQLSGLTSEDSAVYYCARNLGYWGQGTSVTVSS", "VL": "DIKMTQSPLSLPVSLGDQASISCRSSQSLVHSNGNTYLHWYLQKPGQSPKLLIYKVSNRFSGVPDRFSGSGSGTDFTLKISRVEAEDLGVYFCSQSTHVPYTFGGGTKLEIKR", "notes": "Selected as scFv on phage"}, "B9": {"name": "anti-Glypican-1 antibody clone K090-01a030 (antibody, mouse IgG2a, kappa, V domains shown)", "VH": "QVQLQQSGAELVRPGTSVKMSCKAAGYTFTNYWIGWVKQRPGHGLEWIGDIYPGGGYTHYNEKFKGKATLTADTSSSTAYMQLSSLTSEDSAIYYCARERVYYDGSRYFDVWGAGTTVTVSS", "VL": "DIKMTQSPKFLPVSAGDRVTMTCKASQSVGNNVAWYQQKPGQSPKLLIYYASNRYTGVPDRFTGSGSGTDFTFTISSVQVEDLAVYFCQQHYSSPWTFGGGTKLEIKR", "notes": "Selected as scFv on phage"}, "B10": {"name": "anti-Glypican-1 antibody clone K090-01a026 (antibody, mouse IgG2a, kappa, V domains shown)", "VH": "QVHLQQSGAELVRPGTSVKMSCKAAGYTFTNYWIGWVKQRPGHGLEWIGDIYPGGGYTHYNEKFKGKATLTADTSSSTAYMQLSSLTSEDSAIYYCARERVYYDGSRFFDVWGAGTTVTVSS", "VL": "DIVMSQSPKFLPVSAGDRVTMTCKASQSVGNNVAWYQQKPGQSPKLLIYYASNRYTGVPDRFTGSGSGTDFTFTISSVQVEDLAVYFCQQHYSSPWTFGGGTKLEIKR", "notes": "Selected as scFv on phage"}, "B11": {"name": "anti-Glypican-1 antibody clone K090-01a017 (antibody, mouse IgG2a, kappa, V domains shown)", "VH": "EVQLQQSGGELVRPGTSVKMSCKAAGYTFTNYWIGWVKQRPGHGLEWIGDLYPGGGYTHYNEKFKGKATLTADTSSSTAYMQLSSLTSEDSAIYYCARERVYFDGSRYFDVWGAGTTVTVSS", "VL": "SIVMTQTPKFLPVSAGDRVTMTCKASQSVGNNVAWYQQKPGQSPKLLIYYASNRYTGVPDRFTGSGSGTDFTFTISSVQVEDLAVYFCQQHYSSPWTFGGGTKLEIKR", "notes": "Selected as scFv on phage"}, "B12": {"name": "anti-Glypican-1 antibody clone K090-01a042 (antibody, mouse IgG2a, kappa, V domains shown)", "VH": "QVQLQQPGAELAKPGASVKMSCKASGYTFTRYWMHWVKQRPGQGLEWIGYINPSSGYTEYNQKFKDKATLTADKSSSTAYMQLSSLTSEDSAVYYCVRLGDYSYYFDYWGQGTTLTVSS", "VL": "DVVMTQTPLSLPVSLGDQASISCRSSQSIVHSNGNTYLEWYLQKPGQSPKLLIYKVSNRFSGVPDRFSGSGSGTDFTLKISRVEAEDLGVYYCFQGSHVPWTFGGGTKLELKR", "notes": "Selected as scFv on phage"}, "B13": {"name": "anti-Glypican-1 antibody clone K090-01a007 (antibody, mouse IgG2a, kappa, V domains shown)", "VH": "QVHLQQSGAELVKPGASVKLSCKASGYTFTSYWMHWVKQRPGQGLEWIGNIDPYDSETHYNQKFKDKATLTVDKSSSTAYMQLSSLTSEDSAVYYCARDSNWGYFDYWGQGTTLTVSS", "VL": "DVVMTQTPLSLPVSLGDQASISCRSSQSLVHSNGNTYLHWYLQKPGQSPKLLIYKVSNRFSGVPDRFSGSGSGTDFTLKISRVEAEDLGVYFCSQSTHVPWTFGGGTKLELKR", "notes": "Selected as scFv on phage"}, "B14": {"name": "anti-Glypican-1 antibody clone K090-02a002 (antibody, mouse IgG2a, kappa, V domains shown)", "VH": "EVKLVESGGGLVKPGGSRKLSCAASGFTFSDYGMHWVRQAPEKGLEWVAYISSGSSTIYYADTVKGRFTISRDNAKNTLFLQMTSLRSEDTAMYYCARHSYYSYDVGGDYVMDYWGQGTSVTVSS", "VL": "DIVMSQSPKFMSTSVGDRVSITCKASQDVGTAVAWYQQKPGQSPKLLIYWASTRHTGVPDRFTGSGSGTDFTLTISNVQSEDLADYFCQQYSSYPLTFGAGTKLEIKR", "notes": "Selected as scFv on phage"}, "B15": {"name": "anti-Glypican-1 antibody clone K090-02a010 (antibody, mouse IgG2a, kappa, V domains shown)", "VH": "EVKLVESGGGLVKPGGSRKLSCAASGFTFSDYGMHWVRQAPEKGLEWVAYINSGSSTIYYADTVKGRFTISRDNAKNTLFLQMTSLRSGDTAMYYCARHSYYSYDVGGDYVMDYWGQGTSVTVSS", "VL": "DIVLTQSPKFMSTSVGDRVSITCKASQDVGTAVAWYQQKPGQSPKLLIYWASTRHTGVPDRFTGSGSGTDFTLTISNVQSEDLADYFCQQYSSYPLTFGAGTKLEIKR", "notes": "Selected as scFv on phage"}, "B16": {"name": "anti-Glypican-1 antibody clone K090-01a009 (antibody, mouse IgG2a, kappa, V domains shown)", "VH": "EVQLQQSGPELVKPGASVEISCKASGYSFTGYFMNWVKQSQGKSLEWIGRINPDNGDIFYNQKFKGKATLTVDKSSSTAHMELRSLTSEDSAVYYCARSWNWYFDVWGAGTTVTVSS", "VL": "DIQMTQSPASLSASVGETVTITCRASENIYSYLAWYQQKQGKSPQLLVYNAKTLAEGVPSRFSGSGSGTQFSLKINSLQPEDFGSYYCQHHYGTPYTFGSGTKLEIKR", "notes": "Selected as scFv on phage"}, "B17": {"name": "anti-Glypican-1 antibody clone K090-02a022 (antibody, mouse IgG2a, kappa, V domains shown)", "VH": "QVQLQQPGPELVKPGASVKMSCKASGYTFTDYYMNWVKQSHGKSLEWIGRVNPSNGGTSYNQKFKGKATLTVDKSLSTAYMQLNSLTSEDSAVYYCARSGENYYAMDYWGQGTSVTVSS", "VL": "DIQMTQSPASLSASVGETVTITCRASENIYSYLAWYQQKQGKSPQLLVYNGKTLAEGVSSRFSGSGSGTQFSLKINSLQPEDFGSYYCQNHYGVPWTFGGGTKLEIKR", "notes": "Selected as scFv on phage"}}}
{"target": "T1, recombinant human Glypican-1 protein (R&D Systems, CF, 4519-GP-050) (human, UniProt P35052 24-530)", "T1 construct": "Bought protein; also called recombinant human GPC1", "T1 sequence": "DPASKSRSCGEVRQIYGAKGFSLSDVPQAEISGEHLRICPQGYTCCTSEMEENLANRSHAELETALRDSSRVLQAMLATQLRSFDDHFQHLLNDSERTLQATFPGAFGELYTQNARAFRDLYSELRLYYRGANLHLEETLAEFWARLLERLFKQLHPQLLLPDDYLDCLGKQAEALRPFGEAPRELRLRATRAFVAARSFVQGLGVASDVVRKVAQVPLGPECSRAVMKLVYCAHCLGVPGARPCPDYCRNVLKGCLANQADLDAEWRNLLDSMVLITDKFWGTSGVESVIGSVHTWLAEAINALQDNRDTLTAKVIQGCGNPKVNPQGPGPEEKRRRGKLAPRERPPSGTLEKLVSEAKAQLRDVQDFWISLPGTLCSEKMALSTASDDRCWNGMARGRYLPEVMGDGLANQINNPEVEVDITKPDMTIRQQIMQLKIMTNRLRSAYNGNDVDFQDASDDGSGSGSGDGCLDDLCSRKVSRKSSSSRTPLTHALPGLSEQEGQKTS", "experiment": "ELISA on plate-coated recombinant human GPC1"}
{"binder": "B1", "binding result": "binds"}
{"target": "T2, human Glypican-1 (human, UniProt P35052 24-530, limits assumed)", "T2 construct": "also called human GPC1", "T2 sequence": "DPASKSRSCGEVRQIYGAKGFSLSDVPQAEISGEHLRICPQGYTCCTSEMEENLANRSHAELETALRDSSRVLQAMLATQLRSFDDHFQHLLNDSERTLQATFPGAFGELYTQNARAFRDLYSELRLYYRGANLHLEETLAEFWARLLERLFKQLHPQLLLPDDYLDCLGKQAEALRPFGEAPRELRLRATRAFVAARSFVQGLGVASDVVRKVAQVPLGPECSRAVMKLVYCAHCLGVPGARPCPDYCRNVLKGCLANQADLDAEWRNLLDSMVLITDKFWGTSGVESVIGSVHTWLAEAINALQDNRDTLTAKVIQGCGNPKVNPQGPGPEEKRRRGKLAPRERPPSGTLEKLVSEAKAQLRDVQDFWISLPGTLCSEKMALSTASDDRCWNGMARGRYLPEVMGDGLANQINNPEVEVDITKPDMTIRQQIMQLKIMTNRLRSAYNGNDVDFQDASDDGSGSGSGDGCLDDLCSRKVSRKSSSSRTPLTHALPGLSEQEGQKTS", "experiment": "phage scFv panning, ELISA on immobilised human GPC1, cell-ELISA and flow cytometry on human GPC1 transformants and TE14 (Example 1)"}
{"binder": "B1", "binding result": "binds"}
{"binder": "B2", "binding result": "binds"}
{"binder": "B3", "binding result": "binds"}
{"binder": "B4", "binding result": "binds"}
{"binder": "B5", "binding result": "binds"}
{"binder": "B6", "binding result": "binds"}
{"binder": "B7", "binding result": "binds"}
{"binder": "B8", "binding result": "binds"}
{"binder": "B9", "binding result": "binds"}
{"binder": "B10", "binding result": "binds"}
{"binder": "B11", "binding result": "binds"}
{"binder": "B12", "binding result": "binds"}
{"binder": "B13", "binding result": "binds"}
{"binder": "B14", "binding result": "binds"}
{"binder": "B15", "binding result": "binds"}
{"binder": "B16", "binding result": "binds"}
{"binder": "B17", "binding result": "binds"}
